Measurements published in US20210395381A1 (OSSIANIX, published 2021).

B1: Clone 8.70 (VNAR)
VNAR: ARVDQTPQTITKETGESLTINCVLRDSNCALPSTYWYRKKSGSTNEESISKGGRYVETVNSGSKSFSLRINDLTVEDSGTYRCKVIAQLSSILRGCNYQTSDVYGDGTAVTVNA
notes: VNAR on phage; Clone 8 framework
B2: Clone 8.76 (VNAR)
VNAR: ARVDQTPQTITKETGESLTINCVLRDSNCALPSTYWYRKKSGSTNEESISKGGRYVETVNSGSKSFSLRINDLTVEDSGTYRCKVQEELSSILRGCNYRKHDVYGDGTAVTVNA
notes: as for B1
B3: Clone 8.71 (VNAR)
VNAR: ARVDQTPQTITKETGESLTINCVLRDSNCALPSTYWYRKKSGSTNEESISKGGRYVETVNSGSKSFSLRINDLTVEDSGTYRCKVIAQLSSILRGCTPHKHDVYGDGTAVTVNA
notes: as for B1
B4: Clone 8.82 (VNAR)
VNAR: ARVDQTPQTITKETGESLTINCVLRDSNCALPSTYWYRKKSGSTNEESISKGGRYVETVNSGSKSFSLRINDLTVEDSGTYRCKVIAQLSSILRGCVYPKHDVYGDGTAVTVNA
notes: as for B1
B5: Clone 8.77 (VNAR)
VNAR: ARVDQTPQTITKETGESLTINCVLRDSNCALPSTYWYRKKSGSTNEESISKGGRYVETVNSGSKSFSLRINDLTVEDSGTYRCKVIAQLSSILRGCHLWKHDVYGDGTAVTVNA
notes: as for B1
B6: Clone 8.75 (VNAR)
VNAR: ARVDQTPQTITKETGESLTINCVLRDSNCALPSTYWYRKKSGSTNEESISKGGRYVETVNSGSKSFSLRINDLTVEDSGTYRCKVIAQLTEMLRGCNYRKHDVYGDGTAVTVNA
notes: as for B1
B7: Clone 8.80 (VNAR)
VNAR: ARVDQTPQTITKETGESLTINCVLRDSNCALPSTYWYRKKSGSTNEESISKGGRYVETVNSGSKSFSLRINDLTVEDSGTYRCKVIAQLPHDLRGCNYRKHDVYGDGTAVTVNA
notes: as for B1
B8: Clone 8.78 (VNAR)
VNAR: ARVDQTPQTITKETGESLTINCVLRDSNCALPSTYWYRKKSGSTNEESISKGGRYVETVNSGSKSFSLRINDLTVEDSGTYRCKVIAQLSSVVIGCNYSKHDVYGDGTAVTVNA
notes: as for B1
B9: Clone 8.73 (VNAR)
VNAR: ARVDQTPQTITKETGESLTINCVLRDSNCALPSTYWYRKKSGSTNEESISKGGRYVETVNSGSKSFSLRINDLTVEDSGTYRCKVIAQLSSILKGCNYRKHDVYGDGTAVTVNA
notes: as for B1
B10: Clone 8.81 (VNAR)
VNAR: ARVDQTPQTITKETGESLTINCVLRDSNCALPSTYWYRKKSGSTNEESISKGGRYVETVNSGSKSFSLRINDLTVEDSGTYRCKVIAQLSSAPDGCNYRKHDVYGDGTAVTVNA
notes: as for B1
B11: Clone 8.72 (VNAR)
VNAR: ARVDQTPQTITKETGESLTINCVLRDSNCALPSTYWYRKKSGSTNEESISKGGRYVETVNSGSKSFSLRINDLTVEDSGTYRCKVIAQLSSILRGCSGVKHDVYGDGTAVTVNA
notes: as for B1
B12: Clone 8.74 (VNAR)
VNAR: ARVDQTPQTITKETGESLTINCVLRDSNCALPSTYWYRKKSGSTNEESISKGGRYVETVNSGSKSFSLRINDLTVEDSGTYRCKVIAQLSSLQDGCIYRKHDVYGDGTAVTVNA
notes: as for B1
B13: Clone 8.79 (VNAR)
VNAR: ARVDQTPQTITKETGESLTINCVLRDSNCALPSTYWYRKKSGSTNEESISKGGRYVETVNSGSKSFSLRINDLTVEDSGTYRCKVMNQLDHFLRGCNYRKHDVYGDGTAVTVNA
notes: as for B1

Assays:
recombinant mouse TfR-1 = target: T1, recombinant mouse TfR-1 (mouse, UniProt Q62351 89-763); assay: phage ELISA
T1 construct: Recombinant protein coated at 1 ug/ml in the phage ELISA; also called mTfR1; mouse transferrin receptor-1

recombinant human TfR-1 = target: T2, recombinant human TfR-1 (human, UniProt P02786 89-760); assay: phage ELISA
T2 construct: Recombinant protein coated at 1 ug/ml in the phage ELISA; also called hTfR1; human transferrin receptor-1
T2 sequence (P02786 89-760 limits assumed): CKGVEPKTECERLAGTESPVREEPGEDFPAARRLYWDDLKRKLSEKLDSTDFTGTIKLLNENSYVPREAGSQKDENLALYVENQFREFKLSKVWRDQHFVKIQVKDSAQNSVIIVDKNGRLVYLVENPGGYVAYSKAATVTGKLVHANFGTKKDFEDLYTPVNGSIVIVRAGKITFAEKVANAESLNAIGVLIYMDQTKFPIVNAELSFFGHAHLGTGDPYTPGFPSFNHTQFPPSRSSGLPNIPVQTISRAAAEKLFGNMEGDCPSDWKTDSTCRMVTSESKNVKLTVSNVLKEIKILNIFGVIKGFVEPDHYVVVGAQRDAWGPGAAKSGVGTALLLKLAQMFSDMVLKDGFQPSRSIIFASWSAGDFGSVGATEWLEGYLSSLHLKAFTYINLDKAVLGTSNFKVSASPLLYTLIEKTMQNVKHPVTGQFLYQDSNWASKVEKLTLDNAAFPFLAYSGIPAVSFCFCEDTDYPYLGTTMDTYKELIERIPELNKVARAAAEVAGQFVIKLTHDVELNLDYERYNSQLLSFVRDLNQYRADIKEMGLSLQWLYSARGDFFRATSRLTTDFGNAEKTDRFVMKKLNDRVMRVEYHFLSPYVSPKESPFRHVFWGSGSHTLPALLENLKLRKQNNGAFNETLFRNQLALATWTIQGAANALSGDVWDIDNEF

T1 sequence (Q62351 89-763 limits assumed): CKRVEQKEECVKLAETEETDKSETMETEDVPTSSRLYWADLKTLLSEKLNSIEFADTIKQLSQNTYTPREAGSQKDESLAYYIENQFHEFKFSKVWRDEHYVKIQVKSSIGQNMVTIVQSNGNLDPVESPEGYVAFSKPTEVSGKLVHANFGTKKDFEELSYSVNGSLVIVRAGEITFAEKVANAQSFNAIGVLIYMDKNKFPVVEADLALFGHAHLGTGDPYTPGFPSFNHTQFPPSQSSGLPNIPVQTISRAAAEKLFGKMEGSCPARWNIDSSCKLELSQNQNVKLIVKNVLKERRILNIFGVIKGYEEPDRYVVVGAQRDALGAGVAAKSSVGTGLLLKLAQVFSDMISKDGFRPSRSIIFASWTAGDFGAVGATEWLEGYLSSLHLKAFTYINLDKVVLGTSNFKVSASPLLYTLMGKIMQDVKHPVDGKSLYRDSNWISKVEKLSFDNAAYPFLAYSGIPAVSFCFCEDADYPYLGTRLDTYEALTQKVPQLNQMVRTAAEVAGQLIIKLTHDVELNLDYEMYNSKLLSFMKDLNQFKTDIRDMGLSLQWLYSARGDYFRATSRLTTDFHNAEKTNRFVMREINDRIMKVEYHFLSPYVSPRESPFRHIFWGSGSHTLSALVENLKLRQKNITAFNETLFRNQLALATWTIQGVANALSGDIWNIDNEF

| Binder | A450 (recombinant mouse TfR-1) [A450] | A450 (recombinant human TfR-1) [A450] |
| --- | --- | --- |
| B1 | 0.061 | 0.052 |
| B2 | 0.059 | 0.05 |
| B3 | 0.061 | 0.073 |
| B4 | 0.057 | 0.048 |
| B5 | 0.058 | 0.055 |
| B6 | 0.059 | 0.049 |
| B7 | 0.057 | 0.059 |
| B8 | 0.058 | 0.049 |
| B9 | 0.059 | 0.051 |
| B10 | 0.057 | 0.065 |
| B11 | 0.06 | 0.063 |
| B12 | 0.059 | 0.061 |
| B13 | 0.058 | 0.061 |
